Laboratory results reported in article doi:10.1101/2024.03.27.586873.

Biological target: 6xHis-tagged Imp1 (ΦKZ gp69) (phage ΦKZ)
Experiment: SEC + other: mass photometry

## FLAG-tagged Imp6 (ΦKZ gp67) (natural protein)
  stoichiometry N (gp67 per Imp1): 2
